In patent US12534531 (MacroGenics, dated 2026):
Blank lines part the entries; values can stand above or below the binder they belong to.

Experiments:
[1] = target: T1, PD-1 on the surface of CD4+ and CD8+ T cells of cynomolgus monkeys (cynomolgus monkey, UniProt B0LAJ3 25-288); experiment: flow cytometry competition with labeled hPD-1 mAb 7 (1.2) IgG4 (P) on blood of cynomolgus monkeys given 10 mg/kg
T1 construct: In vivo occupancy read by flow cytometry; also called PD-1+/CD4+ and PD-1+/CD8+ cells

[2] = target: T2, human PD-1 expressed on the surface of cells (NSO cells expressing human PD-1; MNFAT-luc2/PD-1 Jurkat cells) (human, UniProt Q15116 21-288); experiment: FACS blocking on NSO cells expressing human PD-1, 1:4 dilutions, MFI; blocked ligand: biotinylated sPD-L1, streptavidin-PE
T2 construct: also called cell surface PD-1; PDCD1 transfected NSO cells expressing PD-1

[3] = target: T2, human PD-1 expressed on the surface of …; experiment: FACS blocking on NSO cells expressing human PD-1, 1:4 dilutions, MFI; blocked ligand: biotinylated sPD-L2, streptavidin-PE
[4] = target: T2, human PD-1 expressed on the surface of …; experiment: FACS: inhibition of sPD-L1 binding to PD-1 on NSO cells; SM; SD 0.1668
[5] = target: T3, soluble human PD-1 (the extracellular domain of human PD-1 fused to a His tag) (human, UniProt Q15116 25-170); experiment: Biacore, mAb captured on F(ab)2 goat anti-human Fc, analyte shPD-1 His
T3 construct: also called shPD-1 His; shPD-1-His; not shown: His tag

[6] = target: T2, human PD-1 expressed on the surface of …; experiment: FACS saturation binding on NSO cells expressing human PD-1, goat anti-human-APC, MFI, 1:4 dilutions
[7] = target: T2, human PD-1 expressed on the surface of …; experiment: FACS: inhibition of sPD-L2 binding to PD-1 on NSO cells; SM; SD 0.2563
[8] = target: T2, human PD-1 expressed on the surface of …; experiment: FACS saturation binding to NSO cells expressing PD-1; SM; SD 0.8112
[9] = target: T4, soluble cynomolgus monkey PD-1 (scyno PD-1 hFc) cleaved to remove Fc portion (cynomolgus monkey, UniProt B0LAJ3 25-170); experiment: Biacore, mAb captured on F(ab)2 goat anti-human Fc, analyte scyno PD-1 hFc cleaved of Fc
[10] = target: T3, soluble human PD-1 (the extracellular …); experiment: Biacore, mAb captured on Protein A, analyte shPD-1 His
[11] = target: T5, soluble cynomolgus monkey PD-1 (the extracellular domain of cynomolgus monkey PD-1 fused to a human Fc Region) (cynomolgus monkey, UniProt B0LAJ3 25-170); experiment: ELISA: scyno-PD-1-TEV-Fc coated at 0.5 ug/ml, goat anti-mouse (H+L)-HRP, RLU
T5 construct: also called scyno-PD1 Fc; scynoPD-1-hFc; not shown: Human Fc Region and any linker or cleavage site between the extracellular domain and the Fc

[12] = target: T3, soluble human PD-1 (the extracellular …); experiment: ELISA: shPD-1 His coated at 1 ug/ml, goat anti-mouse (H+L)-HRP, RLU
[13] = target: T4, soluble cynomolgus monkey PD-1 (scyno …); experiment: Biacore, mAb captured on Protein A, analyte scyno PD-1 hFc cleaved of Fc
[14] = target: T3, soluble human PD-1 (the extracellular …); experiment: ELISA: shPD-1 His coated at 0.5 ug/ml, goat anti-mouse (H+L)-HRP, RLU
[15] = target: T2, human PD-1 expressed on the surface of …; experiment: FACS: biotinylated sPD-L2 on NSO cells expressing human PD-1, streptavidin-PE, MFI
[16] = target: T5, soluble cynomolgus monkey PD-1 (the …); experiment: ELISA: scyno-PD-1-TEV-hFc coated at 1 ug/ml, goat anti-mouse (H+L) detection, RLU

PD-1 binding on CD4+ and CD8+ T cells (% bound, in vivo) [1]: ≥ 80% | IC50 (read off the curve) [2]: ~0.01 ug/test | IC50 (read off the curve) [3]: ~0.02 ug/test | IC50 [4]: 519 nM | Kd [5]: 1.5 nM | EC50 (read off the curve) [6]: ~0.1 µg/mL | IC50 [7]: 1040 nM | EC50 [8]: 1210 nM | Kd [9]: 4.6 nM
B1: hPD-1 mAb 7 (1.2) IgG4 (P) (antibody)
heavy: not shown
light: EIVLTQSPATLSLSPGERATLSCRASESVDNYGMSFMNWFQQKPGQPPKLLIHAASNQGSGVPSRFSGSGSGTDFTLTISSLEPEDFAVYFCQQSKEVPYTFGGGTKVEIKRTVAAPSVFIFPPSDEQLKSGTASVVCLLNNFYPREAKVQWKVDNALQSGNSQESVTEQDSKDSTYSLSSTLTLSKADYEKHKVYACEVTHQGLSSPVTKSFNRGEC
notes: also called MGD012

PD-1 binding on CD4+ and CD8+ T cells (% bound, in vivo) [1]: ≥ 80% | Kd [9]: 6 nM
B2: PD-1 mAb A IgG4 (P) (antibody, V domains shown)
VH: QVQLVESGGGVVQPGRSLRLDCKASGITFSNSGMHWVRQAPGKGLEWVAVIWYDGSKRYYADSVKGRFTISRDNSKNTLFLQMNSLRAEDTAVYYCATNDDYWGQGTLVTVSS
VL: EIVLTQSPATLSLSPGERATLSCRASQSVSSYLAWYQQKPGQAPRLLIYDASNRATGIPARFSGSGSGTDFTLTISSLEPEDFAVYYCQQSSNWPRTFGQGTKVEIK

Kd [10]: 10.2 nM | EC50 (read off the curve) [11]: ~0.3 nM | EC50 (read off the curve) [12]: ~0.3 nM | Kd [13]: 14.3 nM
B3: PD-1 mAb 2 (antibody, V domains shown)
VH: DVQLVESGGGLVQPGGSRKLSCAASGFVFSSFGMHWVRQAPEKGLEWVAYISSGSMSISYADTVKGRFTVTRDNAKNTLFLQMTSLRSEDTAIYYCASLSDYFDYWGQGTTLTVSS
VL: DVVMSQTPLSLPVSLGDQASISCRSSQSLVHSTGNTYLHWYLQKPGQSPKLLIYRVSNRFSGVPDRFSGSGSGTDFTLKISRVEAEDLGVFFCSQTTHVPWTFGGGTKLEIK
notes: Murine monoclonal antibody

EC50 (read off the curve) [11]: ~0.3 nM | EC50 (read off the curve) [12]: ~0.3 nM
B4: PD-1 mAb 4 (antibody, V domains shown)
VH: DVQLVESGGGLVQPGGSRKLSCAASGFVFSSFGMHWVRQAPEKGLEWVAYISSGSMSISYADTVKGRFTVTRDNAKNTLFLQMTSLRSEDTAIYYCASLTDYFDYWGQGTTLTVSS
VL: DVVMSQTPLSLPVSLGDQASISCRSSQSLVHSTGNTYFHWYLQKPGQSPKLLIYRVSNRFSGVPDRFSGSGSGTDFTLKISRVEAEDLGVYFCSQTTHVPWTFGGGTKLEIK
notes: Murine monoclonal antibody

binding result [11]: binds | EC50 (read off the curve) [14]: ~0.3 nM
B5: PD-1 mAb 6 (antibody, V domains shown)
VH: EVKLVESGGGLVNPGGSLKLSCAASGFTFSSYGMSWVRQTPEKRLEWVATISGGGSDTYYPDSVKGRFTISRDNAKNNLYLQMSSLRSEDTALYYCARQKATTWFAYWGQGTLVTVST
VL: not shown
notes: Murine monoclonal antibody

binding result [15]: binds
B6: biotinylated-soluble human PD-L2-muIgFc fusion protein (Ancell Cat #573-030) (Fc fusion, UniProt Q9BQ51 20-220, looked up)
chain: LFTVTVPKELYIIEHGSNVTLECNFDTGSHVNLGAITASLQKVENDTSPHRERATLLEEQLPLGKASFHIPQVQVRDEGQYQCIIIYGVAWDYKYLTLKVKASYRKINTHILKVPETDEVELTCQATGYPLAEVSWPNVSVPANTSHSRTPEGLYQVTSVLRLKPPPGRNFSCVFWNTHVRELTLASIDLQSQMEPRTHPT
modifications: biotinylated (site not stated)
notes: Bought reagent; also called shPD-L2; sPD-L2; not shown: murine Ig Fc

binding result [11]: binds | EC50 (read off the curve) [14]: ~0.3 nM
B7: PD-1 mAb 5 (antibody, V domains shown)
VH: QVQLQQPGVELVRPGASVKLSCKASGYSFTAYWMNWMKQRPGQGLEWIGVIHPSDSETWLNQKFKDKATLTVDKSSSTAYMQLISPTSEDSAVYYCAREHYGSSPFAYWGQGTLVTVSA
VL: not shown
notes: Murine monoclonal antibody

Kd [10]: 1.3 nM | EC50 (read off the curve) [11]: ~0.3 nM | EC50 (read off the curve) [14]: ~0.2 nM | Kd [13]: 3.5 nM
B8: PD-1 mAb 7 (antibody, V domains shown)
VH: QVQLQQPGAELVRPGASVKLSCKASGYSFTSYWMNWVKQRPGQGLEWIGVIHPSDSETWLDQKFKDKATLTVDKSSTTAYMQLISPTSEDSAVYYCAREHYGTSPFAYWGQGTLVTVSS
VL: not shown
notes: Murine monoclonal antibody

EC50 (read off the curve) [11]: ~0.3 nM | EC50 (read off the curve) [12]: ~0.3 nM
B9: PD-1 mAb 1 (antibody, V domains shown)
VH: DVQLQESGPGRVKPSQSLSLTCTVTGFSITNDYAWNWIRQFPGNKLEWMGHITYSGSTSYNPSLKSRISITRDTSKNHFFLQLSSVTPEDTATYYCARDYGSGYPYTLDYWGQGTSVTVSS
VL: QIVLTQSPALMSASPGEKVTMTCSATSIVSYVYWYQQKPGSSPQPWIYLTSNLASGVPARFSGSGSGTSYSLTISSMEAEDAATYYCQQWSDNPYTFGGGTKLEIK
notes: Murine monoclonal antibody

Kd [10]: 9.8 nM | EC50 (read off the curve) [12]: ~0.4 nM | binding result [16]: binds | Kd [13]: 72.7 nM
B10: PD-1 mAb 9 (antibody, V domains shown)
VH: EVMLVESGGGLVKPGGSLKLSCAASGFTFSSYLVSWVRQTPEKRLEWVATISGGGGNTYYSDSVKGRFTISRDNAKNTLYLQISSLRSEDTALYYCARYGFDGAWFAYWGQGTLVTVSS
VL: DIQMTQSPASLSASVGDIVTITCRASENIYSYLAWYQQKQEKSPQLLVYNAKTLAAGVPSRFSGSGSGTQFSLTINSLQPEDFGNYYCQHHYAVPWTFGGGTRLEIT
notes: Murine monoclonal antibody

IC50 (read off the curve) [2]: ~0.03 ug/test | IC50 (read off the curve) [3]: ~0.1 ug/test | Kd [5]: 9.5 nM | EC50 (read off the curve) [6]: ~0.5 µg/mL | Kd [9]: 15.1 nM
B11: hPD-1 mAb 9 (1.1) IgG4 (P) (antibody)
heavy: not shown
light: DIQMTQSPSSLSASVGDRVTITCRASENIYSYLAWYQQKPGKAPKLLIYNAKTLAAGVPSRFSGSGSGTDFTLTISSLQPEDFATYYCQHHYAVPWTFGQGTKLEIKRTVAAPSVFIFPPSDEQLKSGTASVVCLLNNFYPREAKVQWKVDNALQSGNSQESVTEQDSKDSTYSLSSTLTLSKADYEKHKVYACEVTHQGLSSPVTKSFNRGEC
notes: also called hPD-1 mAb 9 IgG4 (P)

IC50 (read off the curve) [2]: ~0.06 ug/test | IC50 (read off the curve) [3]: ~0.1 ug/test | Kd [5]: 10.9 nM | EC50 (read off the curve) [6]: ~0.2 µg/mL | Kd [9]: 9.3 nM
B12: hPD-1 mAb 9 (1.1) IgG1 (AA) (antibody)
heavy: not shown
light: DIQMTQSPSSLSASVGDRVTITCRASENIYSYLAWYQQKPGKAPKLLIYNAKTLAAGVPSRFSGSGSGTDFTLTISSLQPEDFATYYCQHHYAVPWTFGQGTKLEIKRTVAAPSVFIFPPSDEQLKSGTASVVCLLNNFYPREAKVQWKVDNALQSGNSQESVTEQDSKDSTYSLSSTLTLSKADYEKHKVYACEVTHQGLSSPVTKSFNRGEC
notes: also called hPD-1 mAb 9 IgG1 (AA)

PD-1 binding on CD4+ and CD8+ T cells (% bound, in vivo) [1]: ≥ 80% | Kd [9]: 4 nM
B13: PD-1 mAb B IgG4 (P) (antibody, V domains shown)
VH: QVQLVQSGVEVKKPGASVKVSCKASGYTFTNYYMYWVRQAPGQGLEWMGGINPSNGGTNFNEKFKNRVTLTTDSSTTTAYMELKSLQFDDTAVYYCARRDYRFDMGFDYWGQGTTVTVSS
VL: EIVLTQSPATLSLSPGERATLSCRASKGVSTSGYSYLHWYQQKPGQAPRLLIYLASYLESGVPARFSGSGSGTDFTLTISSLEPEDFAVYYCQHSRDLPLTFGGGTKVEIK
